Columns and labels:
[1] = tested on: lateral mesoderm; assay: Forelimb versus hindlimb progenitor specification from lateral mesoderm; type: cell-based, human; details: day 2-3, in the context of BMP and WNT activation
Method: Undifferentiated hPSCs (wild-type H7 as well as TBX5-Venus V19-2 H9 hESCs) were maintained in mTeSR1 media on Geltrex-coated plates. As described, they were differentiated into mid primitive streak for 24 hours (D0-1; 30 ng/mL Activin+40 ng/mL BMP4+6 μM CHIR99021+20 ng/mL FGF2+100 nM PIK90) and subsequently differentiated into lateral mesoderm (D1-2; 1 μM A-83-01+30 ng/mL BMP4+1 μM C59), with the inclusion of 50 nM of TTNPB or 2 μM ATRA on D1-2 for trunk lateral mesoderm that was subsequently competent for forelimb differentiation.
Day 2 trunk lateral mesoderm was differentiated into day 3 forelimb progenitors (D2-3; 1 μM A-83-01+1 μM DMH1+3 μM CHIR99021). By contrast, day 2 non-trunk lateral mesoderm was differentiated into day 3 hindlimb progenitors (D2-3; 25 ng/mL Activin+1 μM DMH1+3 μM CHIR99021).

[2] = tested on: day 6 sclerotome; assay: Sclerotome differentiation towards cartilage; type: cell-based, human
Method: Day 6 sclerotome was briefly washed (DMEM/F12) and treated with BMP4 (20 ng/mL) for 72-144 hours, leading to day 9 or day 12 cartilage-like progeny. Media was changed every 24 hours.
hPSC-derived cartilage progeny were stained with safranin-O to assess their production of acidic proteoglycans, which is a key trademark of cartilage phenotypic function. Safranin-O staining was conducted in accord with standard procedures. Namely, hPSC-derived cartilage progeny at day 12 of differentiation (day 6 sclerotome treated with chondrogenic BMP4 for 6 further days) were fixed (with 4% formaldehyde, for 10 minutes at room temperature), washed twice in PBS, briefly treated with 1M acetic acid for 15 seconds, stained with 1% safranin-O solution for 10 minutes, washed with PBS, and wide-field visualization was performed with a dissecting microscope (Leica M205 FA).
FIG. 11: A) To determine the length of time required for sclerotome differentiation, a qPCR timecourse was performed, encompassing undifferentiated hESCs (D0), day 2 hESC-derived paraxial mesoderm (D2 PXM), day 3 hESC-derived early somite progenitors, and hESC-derived day 3 early somite progenitors that were exposed to sclerotome inductive conditions (5 nM 21K+1 μM C59) for 24 or 48 hours. B) Description of EF1α-BCL2-T2A-GFP lentiviral construct (otherwise known as “C306”; top) and FACS plot of a stably-transduced polyclonal H9 hESC line with near-uniform expression of the BCL2-T2A-GFP transgene (green contour) by comparison to uncolored wild-type hESCs (bottom) (see above methods for details of derivation of the H9 BCL2-T2A-GFP hESC line). C) Higher-magnification picture of BCL2-T2A-GFP hESC-derived sclerotome ectopic bone grafts (originally described above in FIG. 4, panel E), showing that despite the near-ubiquitous expression of GFP throughout the ectopic bone graft (indicating its human provenance), the blood vessels are clearly GFP-negative and therefore presumably derived from the mouse host; scale bar=1 mm. […]

B1: Activin: TGFβ agonist (protein, UniProt P08476 311-426, looked up)
Inhibin beta A chain: GLECDGKVNICCKKQFFVSFKDIGWNDWIIAPSGYHANYCEGECPSHIAGTSGSSLSFHSTVINHYRMRGHSPFANLKSCCVPTKLRPMSMLYYDDGQNIIKKDIQNMIVEECGCS
modifications: Inhibin beta A chain
notes: TGFβ agonist
[1]
  hindlimb transcription factors TBX4 and PITX1 expression: strongly induced the hindlimb transcription factors TBX4 and PITX1

B2: BMP4: BMP family ligand, BMP agonist (protein, UniProt P12644 293-408, looked up)
Bone morphogenetic protein 4: SPKHHSQRARKKNKNCRRHSLYVDFSDVGWNDWIVAPPGYQAFYCHGDCPFPLADHLNSTNHAIVQTLVNSVNSSIPKACCVPTELSAISMLYLDEYDKVVLKNYQEMVVEGCGCR
[2]; BMP4 20 ng/mL
  EPIPHYCAN and AGGRECAN expression (timecourse qPCR): only upregulated after prolonged BMP treatment
  SOX9 expression (timecourse qPCR): rapidly downregulated
[2]; BMP4 for 3 further days, day 9
  cartilage fate (COL2A1, AGGRECAN, EPIPHYCAN, COMP): differentiated towards a cartilage fate

From patent US10787640B2, “Producing mesodermal cell types and methods of using the same” (The Board of Trustees of the Leland Stanford Junior …, priority 2015, dated 2020)
